Measured values from the nanobody polyreactivity screen of Harvey et al. (2022).

Assay: yeast display, Sf9 membrane polyspecificity reagent, FACS + sequencing; frameworks hold sequencing errors
How it was run: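 Synthetic nanobody libraries on Saccharomyces cerevisiae BJ5465 were galactose-induced for 36–48 hours, stained 1 hour at 4 °C with 10% biotinylated, detergent-solubilized Sf9 membrane reagent and enriched on streptavidin microbeads. FACS then separated cells into low and high (top ~1%) gates by anti-HA (expression) and streptavidin (reagent binding) fluorescence. Genes were colony-PCR amplified, MiSeq 2 × 250 sequenced and CDR-length filtered. A clone's polyreactivity label is that of its gate of origin.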

Sequence | polyreactivity (PSR sort gate)
QVQLVESGGGLVHEGRSLRLSCAASGSKYSYDAMGWYRQAPGTERELVPTISWRGRTYYADSVKGRFTISRDNAKNTVYLKMISLKPEDTAVYYCNTKSLYGRSRGYPYDYWGQGTQVTVSS | high polyreactivity
QVQLVESGGGLVHSGRSLRLSCAASGSISCHYAMGWYRTAHGKERDLLAAIDSSGGIKYYADSVKGRFTISRDNSKNTVYLQMNSLKPEDTAVYYCAAVFLLFGFEWSYDYWGQGTQVTVSS | low polyreactivity
QVQLVESGGGLVKAGCSLRLSCADSGFIFSSYAMGWYRQAPGIERELVAAITRSGGITYYADSLKGRFTISRDNAKITVYLQMNSLKPEDTAVYYCAARWRYYRGYSRQRPYEFDYWGQGTQVTVSA | high polyreactivity
QVQLVESGGGLVKAGGSLRISCAASGSIFTPYTMGWYRQAPGKERELVAAISSGDSTYYADSVKGRFTISRDNAKKTVYLQMNSLKPEDTAVYYCAADYRYDYDYWGQGTQVTVSS | low polyreactivity
QVQLVESGGGLVKAGGSLRLICAASGSTFGGNDKGWYRHAPGKERELVDAISSGTSTNYADSVKGRFTISRDNAMNTVYLQMNSLKPEDTAVYYCNAGFWYRRTYDYWGQGTQVTVSS | low polyreactivity
QVQLVESGGGLVKAGGSLRLSCAASGFIFNGYAMGWYRQAPGKESELVAAINSGGITHYADSVKGRFTISRDNAKNTVYLQMNSLKPEDTAVYYCAAVRTGYYRQYDYWGQGTQVTVSS | high polyreactivity
QVQLVESGGGLVKAGGSLRLSCAASGFIFRYYAMGWYRQAPGKERELVAAITSTGRTYYADSVKGRFTISRDNAKNTVYLQMNSLKPEDTAVYYCAKRSYPWGQGTQVTVSS | low polyreactivity
QVQLVESGGGLVKAGGSLRLSCAASGFIFVYYAMGWYRQAPGKERELVARISWRGGRTYYADSVKGRFTISRDNAKNTVYLQMNSLKPEDTAVYYCNADFWNSHVWYDYWGQGTQVTVSS | high polyreactivity
QVQLVESGGGLVKAGGSLRLSCAASGFTFYLNAMGWSRQAPGKERELVAGISWRGGRTYYADSVKGRFTISRDNAKITVYVQLNSLKPEDTAVYYCAAVTYSFQKTDYYWGQGTQVTVSA | high polyreactivity
QVQLVESGGGLVKAGGSLRLSCAASGINFYRYAMGWYRQAPGKERELVAAITWSGVSTSYADSVKGRFTISRDNAKKTVYLQMNSLKPEDTAVYYCNTDPGTLYGDMDSWGQGTQVTVSS | low polyreactivity
QVQLVESGGGLVKAGGSLRLSCAASGITFSYYTMGWYRQAPGKEREFVATISQSSGSTYYADSVKGRFTISRDNAKNTVYLQMNSLKPEDTAVYYCNARRDYEWESWNVDDDYWGQGTQVTVSS | high polyreactivity
QVQLVESGGGLVKAGGSLRLSCAASGLISYPYSMGWYRQSPWKERELVAAITSRGTSTYYADSVKGRFTISRDNAKYTVYLHMNSLKPEDTAVYYCNAVVWRSRVDYYYWGQGTQVTVSS | high polyreactivity
QVQLVESGGGLVKAGGSLRLSCAASGNTFGRNVMGWYRPAPGKERELVAAINRGGSTTYADSVKGRFTISRDNAKNTVYLQMNSLKPEDTAVYYCNAEIRGQSYRFDYWGQGTQVTVSS | high polyreactivity
QVQLVESGGGLVKAGGSLRLSCAASGRIFYGYAMGWYRQAPGKERELVAAITRSGTSTYYADSVKGRFTISRDNAKNTVYLQMHSLKPEDTAVYYCAAVERSLRSPYGDYGYWGHGTQVTVSS | high polyreactivity
QVQLVESGGGLVKAGGSLRLSCAASGRIFYTNDMGWYSQAPGKERELVATISSTGSTNYADSVKGRFTISRDNAKNTVYLEMNSLKPEDTAVYYCAADRSYFLRCIIYDYWGQGTQVTVSS | low polyreactivity
QVQLVESGGGLVKAGGSLRLSCAASGRTFLRNAMGWYRQAPGKERELVATITRGGSTYYADSVKGRFTISRDNAKNSVYLQMNSLKPEDTAVYYCAKDITGGFRRPDYGYWGQGTQVTVSS | low polyreactivity
QVQLVESGGGLVKAGGSLRLSCAASGSIFGGYAMGCYRQAPGKERELVAAISYRGASTYYADSVKWRFTISRDNAKNTVYLQMNSLKPEDTAVYYCAVAARTRARVLYGYDYWGQGTQVTVSS | low polyreactivity
QVQLVESGGGLVKAGGSLRLSCAASGSNFNPYAMGWYRQEPGKQRELVAAITGSGRSTYNSDSVKGRFTISRDNAKNTVYLEMNSLKPEDTAVYYCNRARILVWSKYGYWGQGTQVTVSS | high polyreactivity
QVQLVESGGGLVKAGGSLRLSCAASGSSFSSYAMGWYREAPGKEWELVAAISGGGNTYYADSVKGRFTISSDNAKNTVYLQMNSLKPEDTAVYYCNKSRLEPEYGYWGQGTQVTVSS | low polyreactivity
QVQLVESGGGLVKAGGSLRLSCAASGSTFDWYAMGWYRQAPGKERELVAAITWRGDSTNYADSVKGRFTISRDNAKNTVYLQMNSLKPEDTAVYYCATGKTYRDDYWGQGTQVTVSS | high polyreactivity
QVQLVESGGGLVKAGGSLRLSCAASGSTFPYYAMGWYRQAPGTEREFVAAISSSGGSTYYADSVKGRFTISRDNAKNTVYLQMNSLKPEDTAVYYFAAQGARRNYYRYGTYTNRRYDYWGQGTQVTVSS | high polyreactivity
QVQLVESGGGLVKAGGSLRLSCAASGSTFRRYAMGWYRLAPGKERELVAAITIGGSTYYADSVKGRFTISRDNAKNTVKLKMNSLKPEDTAVYSCNAGKTYLGDYWGQGTQVTVSS | high polyreactivity

Sequence | polyreactivity (PSR sort gate)
QVQLVESGGGLVKAGGSLRLSCAASGSTFYAYAMGWSRQAPGKERELVAAISSSGGSTYYADSVKGRFTISRDNAKNTVYLQMNSLKPEDTAVYYCAAYDSVQIYWILGFDYWGQGSQVTVSS | low polyreactivity
QVQLVESGGGLVKAGGSLRLSCAASGYTYPLYAMGWYRQAPGKEMELVADINIGGASTYYADSVKGRFTISRDNAKNTVYLQMNSLKPEDTAVYDCAKEYYDGYFPTFDYDYWGQGTQVTVSS | low polyreactivity
QVQLVESGGGLVKAGGSLRLSCAATGRIFEYNTMGWYRQAPGKERELVAAITGGTGSTYYADSVKGRFTISRDNAKNTVYLKMNSLKPEDTAVYYCAADYTSPAFYSSFDYWGQGTQVTVSS | low polyreactivity
QVQLVESGGGLVKAGGSLRLSCADSGSIFWYYTMGRYRQAPGKEREFVAAISWSGGGSTYYADSVKGRFTISRENAKYTVYLQMNSLKPEDTAVYYCNGDWTSYGFVTRLDYWGHGTQVTVSS | low polyreactivity
QVQLVESGGGLVKAGGSLRLSCAPSGSTFKSYSMGWYRQAPGIECELVAAITSGGRTYYADSVKGRFTISRDNAKNTVYLQMNSLKPEDTAVYYCAALRVQQVKSYYYWGQGTQVTVSS | high polyreactivity
QVQLVESGGGLVKAGGSLRLSCASSGSTFVGNAMGWYRQAPGKERELVAAISVNDGTTYYADSVKGRFTISRDNAKNTVYLQMNSLKPEDTAVDYCNVKRYGCRSDYWGQGTQVTVSS | high polyreactivity
QVQLVESGGGLVKAGGSLRLSCDSSGGTFSTYAMGWYRQAPGKERELVAAISWRGGSTYYAVSVKGRFTISRDNAKNTVYLQMNSLKPEYNAVYYCAAYYYRGWLLYWDEMYYWGQGTQVTVSS | high polyreactivity
QVQLVESGGGLVKAGGSLRLSFAASGRNFRRNAMGWYRQAPGRERELVAAISSSGGSTYYADSVKGRFTISRDNAKNTVYLQMNSLKPEDTAVYYCAVRSRFGYYWGQGTQVTVSS | high polyreactivity
QVQLVESGGGLVKAGGSLRLSSAASGSTFERYAMGWYRQAPGNERELVAAINWSGGGTYYADSVKGRFTISRDTAKNTVYLQMNSLKPEDTAVYYCAADSGTVVFSLWWYEYYYWGQGNQVTVSS | low polyreactivity
QVQLVESGGGLVKEGGSLRLSCAASGSIYYENTMGWYRQAPGKERELVASISCGGSTYADSVKGRFTISRDNAKNSVYLQMYSLKAEDSAVYYCNADSSTEYDYWGQGTQVTVSS | low polyreactivity
QVQLVESGGGLVLAGGSLRLSCAASGIIFKIYAMGWFRQAPGKEMELVADITSVGSTKYADSVKGRFTISRDNAKNTVYLQMNSLKPEDTAVYYCATDWVTSHDDDYWGQGTQVTVSS | low polyreactivity
QVQLVESGGGLVLAGGSLRLSCAASGRIFSYYAMGWYRQAPGQERELVAAISWNGGSTYYADSVKGRFTISRDNAKNTVYLQMNSLKPEDTAVYYCAVLPHYEYDYWGQGTQVTVSS | high polyreactivity
QVQLVESGGGLVLAGGSLRLSCAASGRIYRIYNKGWYRQAPGKERELVAAISKSGGGTYYADSVKGRFTISRDNAKNTVYLQMNSLKPEDTAVYYCTTANWDRKSRVFRQSTVGYGYWGQGTQVTVSS | high polyreactivity
QVQLVESGGGLVLAGGSLRLSCAASGSISTNYAMGWYRQAPGKERELVAAISDSSGSTYYADSVKGRFTISRDNAKNIVYLQMNSLKPEDTAVYYCNADSQGGRDVNYDYEYYYWGQGTQVTVSS | low polyreactivity
QVQLVESGGGLVLAGGSLRLSCAASGYTFTIYAMGWYIQGPGKERELVSAITGRGGRTNYADSVKGRFTISRDNAKNTVYLQMNSLKPEDTAVYYCNAVTKVVYHGPYGYDYWGQGTQVTVSS | high polyreactivity
QVQLVESGGGLVLAGGSRRLSCASSGSTFPLYTMGWYRQAPGKERELVAAINYGGTSTYYADSVKGRFTFSRVKAKNTVYLQRNSLKPEDTAVYYCAAERYFLYLCRKFGYWGQGTQVTVSW | high polyreactivity
QVQLVESGGGLVLAGGTLRISCAASGSIFYRNTMGWYRLAPVKERELVAAITRGGGRTYYADSVKARFTISRDTAKNTVFLQMNSLKPEDSAVYYCAVQAFSHTSSRMDYWGQGSQVTVSS | high polyreactivity
QVQLVESGGGLVLARGTLRLSCPASGFTFSRYAMGWYRQAPGKERELVAAISRTGGRTYYADSVKGRFTISRDNAKNTVYLQMNSLKPVDTAVYYCARLPVHSHLRQTYAMEYWGQGTQVTVSS | high polyreactivity
QVQLVESGGGLVNAGGSLRLSCAASGRITGDNAMVWYRQAPGKVRELVAAISTSRRTYYADSVKGRFTISRDNAKNTVYLQMNSLKPEDTAVYYCNAFGSNGGAMDYWGQGTQLTVSS | high polyreactivity
QVQLVESGGGLVNAGGTLRLSCAASGSTFYRNAMGWYRQAPGKERELVATITYSGGSTYYADSVKGRFTNSRDNAKNTVYLQMNSLKPEDTAVYYCAVRRLRRNFVSYYYWGQGTQVTVSS | high polyreactivity
QVQLVESGGGLVPAGGSLRLSCAASGFTFRRYDMGWYRHAPGKERELVAAISWSSDGTYYADSVKGRFTISRDNAKNTVYLQINSLKPEDTAVYYCAARWGTKSGRYDYWGQGTQVTVSS | high polyreactivity
